Measurements published in the supplement of paper PMC11246515.
± gives the standard deviation of the averaged measurements.

Assay: total protein half-life in vivo (active degradation + dilution); higher = more stable protein
[1] = E. coli NCM3722 delta-clpP delta-lon delta-hslV, growth: N-lim chemostat, doubling time 6 h
[2] = E. coli NCM3722 delta-clpP, growth: N-lim chemostat, doubling time 6 h
[3] = E. coli NCM3722 delta-hslV, growth: N-lim chemostat, doubling time 6 h
[4] = E. coli NCM3722 delta-lon, growth: N-lim chemostat, doubling time 6 h
[5] = E. coli NCM3722 delta-smpB, growth: N-lim chemostat, doubling time 6 h
[6] = wild type E. coli NCM3722, growth: C-lim chemostat, doubling time 3 h
[7] = wild type E. coli NCM3722, growth: C-lim chemostat, doubling time 12 h
[8] = wild type E. coli NCM3722, growth: N-lim chemostat, doubling time 6 h
[9] = wild type E. coli NCM3722, growth: N-lim chemostat, doubling time 12 h
[10] = wild type E. coli NCM3722, growth: P-lim chemostat, doubling time 6 h
[11] = wild type E. coli NCM3722, growth: P-lim chemostat, doubling time 12 h
[12] = wild type E. coli NCM3722, growth: C-lim chemostat, doubling time 6 h

| Sequence | total protein half-life in vivo [1] | total protein half-life in vivo [2] | total protein half-life in vivo [3] | total protein half-life in vivo [4] | total protein half-life in vivo [5] | total protein half-life in vivo [6] | total protein half-life in vivo [7] | total protein half-life in vivo [8] | total protein half-life in vivo [9] | total protein half-life in vivo [10] | total protein half-life in vivo [11] | total protein half-life in vivo [12] |
| --- | --- | --- | --- | --- | --- | --- | --- | --- | --- | --- | --- | --- |
| MNKYQAVIIGFGKAGKTLAVTLAKAGWRVALIEQSNAMYGGTCINIGCIPTKTLVHDAQQHTDFVRAIQRKNEVVNFLRNKNFHNLADMPNIDVIDGQAEFINNHSLRVHRPEGNLEIHGEKIFINTGAQTVVPPIPGITTTPGVYDSTGLLNLKELPGHLGILGGGYIGVEFASMFANFGSKVTILEAASLFLPREDRDIADNIATILRDQGVDIILNAHVERISHHENQVQVHSEHAQLAVDALLIASGRQPATASLHPENAGIAVNERGAIVVDKRLHTTADNIWAMGDVTGGLQFTYISLDDYRIVRDELLGEGKRSTDDRKNVPYSVFMTPPLSRVGMTEEQARESGADIQVVTLPVAAIPRARVMNDTRGVLKAIVDNKTQRMLGASLLCVDSHEMINIVKMVMDAGLPYSILRDQIFTHPSMSESLNDLFSLVK | 5.58 ± 0.12 h | 4.727 ± 0.039 h | 4.73 ± 0.26 h | 5.53 ± 0.24 h | 4.9 ± 0.99 h | 3.31 ± 0.05 h | 10.4 ± 1 h | 4.71 ± 0.29 h | 8.5 ± 0.62 h | 6 ± 0.4 h | 12 ± 1.2 h | – |
| MTILNHTLGFPRVGLRRELKKAQESYWAGNSTREELLAVGRELRARHWDQQKQAGIDLLPVGDFAWYDHVLTTSLLLGNVPARHQNKDGSVDIDTLFRIGRGRAPTGEPAAAAEMTKWFNTNYHYMVPEFVKGQQFKLTWTQLLDEVDEALALGHKVKPVLLGPVTWLWLGKVKGEQFDRLSLLNDILPVYQQVLAELAKRGIEWVQIDEPALVLELPQAWLDAYKPAYDALQGQVKLLLTTYFEGVTPNLDTITALPVQGLHVDLVHGKDDVAELHKRLPSDWLLSAGLINGRNVWRADLTEKYAQIKDIVGKRDLWVASSCSLLHSPIDLSVETRLDAEVKSWFAFALQKCHELALLRDALNSGDTAALAEWSAPIQARRHSTRVHNPAVEKRLAAITAQDSQRANVYEVRAEAQRARFKLPAWPTTTIGSFPQTTEIRTLRLDFKKGNLDANNYRTGIAEHIKQAIVEQERLGLDVLVHGEAERNDMVEYFGEHLDGFVFTQNGWVQSYGSRCVKPPIVIGDISRPAPITVEWAKYAQSLTDKPVKGMLTGPVTILCWSFPREDVSRETIAKQIALALRDEVADLEAAGIGIIQIDEPALREGLPLRRSDWDAYLQWGVEAFRINAAVAKDDTQIHTHMCYCEFNDIMDSIAALDADVITIETSRSDMELLESFEEFDYPNEIGPGVYDIHSPNVPSVEWIEALLKKAAKRIPAERLWVNPDCGLKTRGWPETRAALANMVQAAQNLRRG | 3.21 ± 0.81 h | 2.4 ± 0.23 h | 2.34 ± 0.34 h | 2.938 ± 0.012 h | 2.6 ± 0.53 h | 2.48 ± 0.19 h | 6.91 ± 0.33 h | 2.56 ± 0.063 h | 3.593 ± 0.023 h | 4.14 ± 0.21 h | 6.88 ± 1.1 h | 4.22 ± 0.071 h |
| MFVEHNLIKNIKIFTLAFTLTVVLIQLSRFISPLAIIHSSYIFLAWMPLCVMLSILFIFGWRGVVPVLCGMFCTNLWNFHLSFLQTAVMLGSQTFVVLCACAILRWQLGTRWRYGLTSRYVWQRLFWLGLVTPIGIKCSMYLVGSFFDFPLKISTFFGDADAIFTVVDLLSLFTAVLIYNMLFYYLTRMIVSPHFAQILWRRDIAPSLGKEKRAFTLSWLAALSVLLLLLCTPYENDFIAGYLVPVFFIIFTLGVGKLRYPFLNLTWAVSTLCLLNYNQNFLQGVETEYSLAFILAVLISFSVCLLYMVRIYHRSEWLNRRWHLQALTDPLTLLPNFRALEQAPEQEAGKSFCCLRIDNLEFMSRHYGLMMRVHCIRSICRTLLPLMQENEKLYQLPGSELLLVLSGPETEGRLQHMVNILNSRQIHWNNTGLDMGYGAAWGRFDGNQETLQPLLGQLSWLAEQSCAHHHVLALDSREEMVSGQTTKQVLLLNTIRTALDQGDLLLYAQPIRNKEGEGYDEILARLKYDGGIMTPDKFLPLIAQFNLSARFDLQVLESLLKWLATHPCDKKGPRFSVNLMPLTLLQKNIAGRIIRLFKRYHISPQAVILEITEEQAFSNAESSMYNIEQLHKFGFRIAIDDFGTGYANYERLKRLQADIIKIDGVFVKDIVTNTLDAMIVRSITDLAKAKSLSVVAEFVETQQQQALLHKLGVQYLQGYLIGRPQPLAD | – | 6.53 ± 0.1 h | 5.86 ± 0.58 h | 6.27 ± 0.65 h | 5.72 ± 0.47 h | – | 13.6 ± 0.27 h | 6.08 ± 0.22 h | 12.2 ± 1.5 h | 6.1 ± 0.44 h | 13.8 ± 0.87 h | 5.29 ± 1.1 h |
| MMQPVINAPEIATAREQQLFNGKNFHVFIYNKTESISGLHQHDYYEFTLVLTGRYFQEINGKRVLLERGDFVFIPLGSHHQSFYEFGATRILNVGISKRFFEQHYLPLLPYCFVASQVYRTNNAFLTYVETVISSLNFRETGLEEFVEMVTFYVINRLRHYREEQVIDDVPQWLKSTVEKMHDKEQFSESALENMVALSAKSQEYLTRATQRYYGKTPMQIINEIRINFAKKQLEMTNYSVTDIAFEAGYSSPSLFIKTFKKLTSFTPKSYRKKLTEFNQ | 5.04 ± 0.62 h | – | – | – | – | 1.18 ± 0.012 h | 1.55 h | – | – | – | – | 1.89 ± 0.2 h |
| MTIYTLSHGSLKLDVSDQGGVIEGFWRDTTPLLRPGKKSGVATDASCFPLVPFANRVSGNRFVWQGREYQLQPNVEWDAHYLHGDGWLGEWQCVSHSDDSLCLVYEHRSGVYHYRVSQAFHLTADTLTVTLSVTNQGAETLPFGTGWHPYFPLSPQTRIQAQASGYWLEREQWLAGEFCEQLPQELDFNQPAPLPRQWVNNGFAGWNGQARIEQPQEGYAIIMETTPPAPCYFIFVSDPAFDKGYAFDFFCLEPMSHAPDDHHRPEGGDLIALAPGESTTSEMSLRVEWL | 6.63 h | – | – | – | – | 0.925 h | 10.7 h | – | – | 6.42 h | 11.3 ± 0.92 h | – |
| MKIYLVGGAVRDALLGLPVKDRDWVVVGSTPQEMLDAGYQQVGRDFPVFLHPQTHEEYALARTERKSGSGYTGFTCYAAPDVTLEDDLKRRDLTINALAQDDNGEIIDPYNGLGDLQNRLLRHVSPAFGEDPLRVLRVARFAARYAHLGFRIADETLALMREMTHAGELEHLTPERVWKETESALTTRNPQVFFQVLRDCGALRVLFPEIDALFGVPAPAKWHPEIDTGIHTLMTLSMAAMLSPQVDVRFATLCHDLGKGLTPPELWPRHHGHGPAGVKLVEQLCQRLRVPNEIRDLARLVAEFHDLIHTFPMLNPKTIVKLFDSIDAWRKPQRVEQLALTSEADVRGRTGFESADYPQGRWLREAWEVAQSVPTKAVVEAGFKGVEIREELTRRRIAAVASWKEQRCPKPE | 4.23 ± 0.88 h | 3.75 ± 0.11 h | 3.29 ± 0.057 h | 3.79 ± 0.16 h | 3.37 ± 0.045 h | 2.96 ± 0.27 h | 8.37 ± 0.69 h | 3.48 ± 0.28 h | 5.55 ± 0.2 h | 5.114 ± 0.016 h | 9.86 ± 0.35 h | 5.06 ± 0.79 h |
| MGIFKAKNPCTKNTIFTTSNTLIYGGFMISLNDFYEQICRKRRDLAYHMSECEWAVDTDVLEEDHPEIRIELGRMREQFWSSEKIGTRVRLYSCDVPWETRHHTVNGQLEIKEEYTELYDPAQECWKNLSSNLTKETFLPLVIEPFSINDIFKAHLMFASISFFWGKSIMSENENVAFKAFHRAAELFDKCIGMTWFNISVCNQKKLSEVRRSAGKKGGKSKAEVYHIIQLKLVELINDSVPNDGWKNKVVAVNELIEPLWDFIQMSEFEINNQNKKYRVATMSQDALVDTILNQWSLKNEDVKQAFDSAVRRKKRSK | 5.49 ± 0.65 h | – | – | – | – | – | – | – | – | – | – | – |
| MNALTAVQNNAVDSGQDYSGFTLTPSAQSPRLLELTFTEQTTKQFLEQVAEWPVQALEYKSFLRFRVAKILDDLCANQLQPLLLKTLLNRAEGALLINAVGVDDVKQADEMVKLATAVAHLIGRSNFDAMSGQYYARFVVKNVDNSDSYLRQPHRVMELHNDGTYVEEITDYVLMMKIDEQNMQGGNSLLLHLDDWEHLDNYFRHPLARRPMRFAAPPSKNVSKDVFHPVFDVDQQGRPVMRYIDQFVQPKDFEEGVWLSELSDAIETSKGILSVPVPVGKFLLINNLFWLHGRDRFTPHPDLRRELMRQRGYFAYASNHYQTHQ | 5.49 ± 0.24 h | 1.73 ± 0.11 h | – | – | – | 0.794 ± 0.23 h | 0.791 ± 0.35 h | 1.3 h | 1.1 ± 0.12 h | – | 1.17 ± 0.72 h | 1.18 ± 0.23 h |
| MARKTKPLTDTEIKAAKPKDADYQLYDGDGLTLLIKSSGSKLWQFRYYRPLTKQRTKQSFGAYPAVSLSDARKLRAESKVLLAKDIDPQEHQKEQVRNSQEAKTNTFLLVAERWWNVKKTSVTEDYADDIWRSLERDIFPAIGDISITEIKAHTLVKAVQPVQARGALETVRRLCQRINEVMIYAQNTGLIDAVPSVNIGKAFEKPQKKNMPSIRPDQLPQLMHTMRTASISMSTRCLFMWQLLTITRPAEAAEARWDEIDFNASEWKIPAARMKMNRDHTVPLSDGALAILEMMKPLSGGREFIFPSRIKPNQPMNSQTVNAALKRAGLGGVLVSHGLRSIASTALNEEGFPPDVIEAALAHVDKNEVRRAYNRSDYLEQRRPMMQWWADLVKAADSGSIVLTHLSKIRLVG | 5.38 ± 0.81 h | – | 0.734 ± 0.064 h | 1.362 ± 0.0065 h | 0.777 ± 0.0083 h | 1.16 ± 0.22 h | 0.594 h | 1.7 ± 0.26 h | 0.847 h | 0.572 h | 1.64 ± 0.32 h | 1.13 ± 0.079 h |
